One data set concerns E. coli MG1655. As to the kind of experiment: Coexpression of decarbonylase and aldehyde-generating enzyme in E. coli, GC-MS of hydrocarbons. Type of data set: cell-based. The following applies: for Production of Alkanes and Alkenes: alkane/alkene biosynthetic polypeptide coexpressed in E. coli with the aldehyde biosynthetic polypeptide of the same table row; for fatty aldehyde decarbonylase activity in E. coli: cotransformed with S. elongatus PCC7942_1594 into E. coli MG1655, M9 minimal media, 37° C. From the text: Seven cyanobacteria, whose complete genome sequences are publicly available, were selected for verification and/or detection of alkane biosynthesis: Synechococcus elongatus PCC7942, Synechococcus elongatus PCC6301, Anabaena variabilis ATCC29413, Synechocystis sp. PCC6803, Nostoc punctiforme PCC73102, Gloeobacter violaceus ATCC 29082, and Prochlorococcus marinus CCMP1986. Only the first three cyanobacterial strains from this list had previously been reported to contain alkanes (Han et al., J. Am. Chem. Soc. 91:5156-5159 (1969); Fehler et al., Biochem. 9:418-422 (1970)). The strains were grown photoautotrophically in shake flasks in 100 mL of the appropriate media (listed in Table 8) for 3-7 days at 30° C. at a light intensity of approximately 3,500 lux. Cells were extracted for alkane detection as follows: cells from 1 mL culture volume were centrifuged for 1 min at 13,000 rpm, the cell pellets were resuspended in methanol, vortexed for 1 min and then sonicated for 30 min. After centrifugation for 3 min at 13,000 rpm, the supernatants were transferred to fresh vials and analyzed by GC-MS. The samples were analyzed on either 30 m DP-5 capillary column (0.25 mm internal diameter) or a 30 m high temperature DP-5 capillary column (0.25 mm internal diameter) using the following method.
After a 1 μL splitless injection (inlet temperature held at 300° C.) onto the GC/MS column, the oven was held at 100° C. for 3 mins. The temperature was ramped up to 320° C. at a rate of 20° C./min. The oven was held at 320° C. for an additional 5 min. The flow rate of the carrier gas helium was 1.3 mL/min. The MS quadrapole scanned from 50 to 550 m/z. Retention times and fragmentation patterns of product peaks were compared with authentic references to confirm peak identity.
The genomic DNA encoding Synechococcus elongatus PCC7942 orf1594 (YP_400611; putative aldehyde-generating enzyme) (SEQ ID NO:65) was amplified and cloned into the NcoI and EcoRI sites of vector OP-80 (pCL1920 derivative) under the control of the Ptrc promoter. The resulting construct (“OP80-PCC7942_1594”) was transformed into E. coli MG1655 and the cells were grown at 37° C. in M9 minimal media with 1% (w/v) glucose as carbon source and supplemented with 100 μg/mL spectinomycin. When the culture reached OD600 of 0.8-1.0, it was induced with 1 mM IPTG and cells were grown for an additional 18-20 h at 37° C. Cells from 0.5 mL of culture were extracted with 0.5 mL of ethyl acetate. After sonication for 60 min, the sample was centrifuged at 15,000 rpm for 5 min. The solvent layer was analyzed by GC-MS as described in Example 1.
The genomic DNA encoding Synechococcus elongatus PCC7942 orf1593 (YP_400610; putative decarbonylase) (SEQ ID NO:1) was amplified and cloned into the NdeI and XhoI sites of vector OP-183 (pACYC derivative) under the control of the Ptrc promoter. The resulting construct was cotransformed with OP80-PCC7942_1594 into E. coli MG1655 and the cells were grown at 37° C. in M9 minimal media supplemented with 100 μg/mL spectinomycin and 100 μg/mL carbenicillin. The cells were cultured and extracted as in Example 3 and analyzed by GC-MS as described in Example 1. […]

Data set [1] has as its system E. coli MG1655 ΔfadD lacZ::Ptrc-′tesA. The data set is described as follows: Decarbonylase expression in fatty aldehyde-producing E. coli strain expressing MSMEG_5739. It is filed as cell-based. Conditions: coexpressed with M. smegmatis carboxylic acid reductase MSMEG_5739.

B1: SEQ ID NO: 53: Synechococcus sp. RS9917 RS9917_12945, putative decarbonylase, codon optimized for E. coli (protein, listed as Synechococcus sp.)
chain: MTQLDFASAAYREAYSRINGVVIVGEGLANRHFQMLARRIPADRDELQRLGRMEGDHASAFVGCGRNLGVVADLPLARRLFQPLHDLFKRHDHDGNRAECLVIQGLIVECFAVAAYRHYLPVADAYARPITAAVMNDESEHLDYAETWLQRHFDQVKARVSAVVVEALPLTLAMLQSLAADMRQIGMDPVETLASFSELFREALESVGFEAVEARRLLMRAAARMV
Consider B1, for which, in the data set on E. coli MG1655, the “Production of Alkanes and Alkenes” value is “yes”; the “fatty aldehyde decarbonylase activity in E. coli” value was “active fatty aldehyde decarbonylase”. Moreover, the “conversion of fatty aldehydes provided by MSMEG_5739 to alkanes” value (“conversion of fatty aldehydes provided” below) in data set [1] is recorded as “converted fatty aldehydes provided by MSMEG_5739 to the corresponding alkanes”.

B2: SEQ ID NO: 15: Gloeobacter violaceus PCC7421 gll3146, putative decarbonylase (protein, listed as Gloeobacter violaceus)
chain: VNRTAPSSAALDYRSDTYRDAYSRINAIVLEGEREAHANYLTLAEMLPDHAEALKKLAAMENRHFKGFQSCARNLEVTPDDPFARAYFEQLDGNFQQAAAEGDLTTCMVIQALIIECFAIAAYNVYIPVADAFARKVTEGVVKDEYTHLNFGQQWLKERFVTVREGIERANAQNLPIVWRMLNAVEADTEVLQMDKEAIVEDFMIAYGEALGDIGFSMRDVMKMSARGLASAPRQ
Consider B2, for which, in the data set on E. coli MG1655, the “Production of Alkanes and Alkenes” value is on record as “yes”; the “fatty aldehyde decarbonylase activity in E. coli” value is reported as “active fatty aldehyde decarbonylase”. The “conversion of fatty aldehydes provided” value in data set [1] is listed as “converted fatty aldehydes provided by MSMEG_5739 to the corresponding alkanes”.

B3: SEQ ID NO: 7: Nostoc sp. PCC7210 alr5283, putative decarbonylase (protein, listed as Nostoc sp.)
chain: MQQVAADLEIDFKSEKYKDAYSRINAIVIEGEQEAYENYIQLSQLLPDDKEDLIRLSKMESRHKKGFEACGRNLQVSPDMEFAKEFFAGLHGNFQKAAAEGKIVTCLLIQSLIIECFAIAAYNIYIPVADDFARKITEGVVKDEYSHLNFGEVWLQKNFAQSKAELEEANRHNLPIVWKMLNQVADDAAVLAMEKEALVEDFMIQYGEALSNIGFTTRDIMRMSAYGLTAA
Regarding B3, in the data set on E. coli MG1655, the “Production of Alkanes and Alkenes” value was “yes”; the “fatty aldehyde decarbonylase activity in E. coli” value was “active fatty aldehyde decarbonylase”. Further, in data set [1], the “conversion of fatty aldehydes provided” value was “converted fatty aldehydes provided by MSMEG_5739 to the corresponding alkanes”.

B4: SEQ ID NO: 19: Prochlorococcus marinus CCMP1986 PMM0532, putative decarbonylase (protein, listed as Prochlorococcus marinus)
chain: MQTLESNKKTNLENSIDLPDFTTDSYKDAYSRINAIVIEGEQEAHDNYISLATLIPNELEELTKLAKMELKHKRGFTACGRNLGVQADMIFAKEFFSKLHGNFQVALSNGKTTTCLLIQAILIEAFAISAYHVYIRVADPFAKKITQGVVKDEYLHLNYGQEWLKENLATCKDELMEANKVNLPLIKKMLDQVSEDASVLAMDREELMEEFMIAYQDTLLEIGLDNREIARMAMAAIV
On to B4, for which, in the data set on E. coli MG1655, the “Production of Alkanes and Alkenes” value is “yes”; the “fatty aldehyde decarbonylase activity in E. coli” value is recorded as “active fatty aldehyde decarbonylase”. Moreover, in data set [1], the “conversion of fatty aldehydes provided” value is reported as “converted fatty aldehydes provided by MSMEG_5739 to the corresponding alkanes”.

B5: SEQ ID NO: 9: Acaryochloris marina MBIC11017 AM1_4041, putative decarbonylase (protein, listed as Acaryochloris marina)
chain: MPQTQAISEIDFYSDTYKDAYSRIDGIVIEGEQEAHENYIRLGEMLPEHQDDFIRLSKMEARHKKGFEACGRNLKVTCDLDFARRFFSDLHKNFQDAAAEDKVPTCLVIQSLIIECFAIAAYNIYIPVADDFARKITESVVKDEYQHLNYGEEWLKAHFDDVKAEIQEANRKNLPIVWRMLNEVDKDAAVLGMEKEALVEDFMIQYGEALSNIGFSTGEIMRMSAYGLVAA
With B5, in the data set on E. coli MG1655, the “Production of Alkanes and Alkenes” value is recorded as “yes”; the “fatty aldehyde decarbonylase activity in E. coli” value is reported as “active fatty aldehyde decarbonylase”. Besides, the “conversion of fatty aldehydes provided” value in data set [1] is on record as “converted fatty aldehydes provided by MSMEG_5739 to the corresponding alkanes”.

B6: SEQ ID NO: 5: Nostoc punctiforme PCC73102 Npun02004178, putative decarbonylase (protein)
chain: MQQLTDQSKELDFKSETYKDAYSRINAIVIEGEQEAHENYITLAQLLPESHDELIRLSKMESRHKKGFEACGRNLAVTPDLQFAKEFFSGLHQNFQTAAAEGKVVTCLLIQSLIIECFAIAAYNIYIPVADDFARKITEGVVKEEYSHLNFGEVWLKEHFAESKAELELANRQNLPIVWKMLNQVEGDAHTMAMEKDALVEDFMIQYGEALSNIGFSTRDIMRLSAYGLIGA
modifications: Nostoc punctiforme
notes: Nostoc punctiforme PCC73102 Npun02004178, putative decarbonylase
Turning to B6, in the data set on E. coli MG1655, the “Production of Alkanes and Alkenes” value is listed as “yes”; the “fatty aldehyde decarbonylase activity in E. coli” value is “active fatty aldehyde decarbonylase”. Besides, in data set [1], the “conversion of fatty aldehydes provided” value was “converts tetradecanal, hexadecenal and hexadecanal provided by the carboxylic acid reductase MSMEG_5739 to tridecane, pentadecene and pentadecane”.

B7: SEQ ID NO: 52: Synechococcus sp. RS9917 RS9917_09941, putative decarbonylase, codon optimized for E. coli (protein, listed as Synechococcus sp.)
chain: MPTLETSEVAVLEDSMASGSRLPDFTSEAYKDAYSRINAIVIEGEQEAHDNYIALGTLIPEQKDELARLARMEMKHMKGFTSCGRNLGVEADLPFAKEFFAPLHGNFQAALQEGKVVTCLLIQALLIEAFAISAYHIYIPVADPFARKITEGVVKDEYTHLNYGQEWLKANFEASKDELMEANKANLPLIRSMLEQVAADAAVLQMEKEDLIEDFLIAYQEALCEIGFSSRDIARMAAAALAV
For B7, in the data set with E. coli MG1655, the “Production of Alkanes and Alkenes” value is “yes”; the “fatty aldehyde decarbonylase activity in E. coli” value is recorded as “active fatty aldehyde decarbonylase”. Moreover, the “conversion of fatty aldehydes provided” value in data set [1] is listed as “converted fatty aldehydes provided by MSMEG_5739 to the corresponding alkanes”.

Values taken from patent US9481899B2, “Methods and compositions for producing hydrocarbons” (priority 2008, dated 2016).
